# Test results reported in EP0480381A1 (NIPPON CHEMIPHAR CO., LTD., dated 1992).
# T1: rat endothelin receptor (rat)
# T1 sequence (P26684 whole entry, looked up): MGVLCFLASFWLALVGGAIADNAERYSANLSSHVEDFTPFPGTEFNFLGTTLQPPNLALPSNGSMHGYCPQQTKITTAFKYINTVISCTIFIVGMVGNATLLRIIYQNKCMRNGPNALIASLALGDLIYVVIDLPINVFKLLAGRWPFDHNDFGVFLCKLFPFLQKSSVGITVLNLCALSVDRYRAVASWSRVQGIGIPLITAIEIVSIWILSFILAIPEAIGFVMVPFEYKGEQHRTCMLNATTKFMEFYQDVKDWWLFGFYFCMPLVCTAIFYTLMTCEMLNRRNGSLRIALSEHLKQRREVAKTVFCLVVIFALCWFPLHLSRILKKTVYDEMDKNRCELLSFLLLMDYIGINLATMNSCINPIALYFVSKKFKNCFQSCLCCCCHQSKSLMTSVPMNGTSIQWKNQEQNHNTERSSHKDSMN
# B1: endothelin-3 (peptide, UniProt P14138 97-117, looked up)
# peptide: CTCFTYKDKECVYYCHLDIIW
# B2: endothelin-1 (peptide, UniProt P05305 53-73, looked up)
# peptide: CSCSSLMDKECVYFCHLDIIW
# Molecular target: T1, rat endothelin receptor
# Assay: cell-based or functional assay
row,Binder,"increase of calcium concentration in cytoplasm (fura-2), EC50"
1,B1,~20 pM
2,B2,~20 pM
